Reference: patent US20260242478A1 (published 2026)
Where no end group is shown, it is not given here.

B1: Phage-3185 (peptide, not shown: large carriers)
peptide: IEKWCFPMWMCEGF
modifications: cysteine pairing not given here; also: fused to phage pIII, junction sequence not given here
notes: Clonal phage of the Peptide-180 library, tested as crude supernatant
B2: Phage-3186 (peptide, not shown: large carriers)
peptide: VSELCRPAWMCHGF
notes: as for B1
B3: Phage-3187 (peptide, not shown: large carriers)
peptide: AAPMCIPAWMCHGF
notes: as for B1
B4: Phage-3188 (peptide, not shown: large carriers)
peptide: DMRVCKPEWMCTGL
notes: as for B1
B5: Phage-3189 (peptide, not shown: large carriers)
peptide: LEALCVPRWMCEGF
notes: as for B1
B6: Phage-3190 (peptide, not shown: large carriers)
peptide: ADLRCVPEWMCMGI
notes: as for B1
B7: Phage-3191 (peptide, not shown: large carriers)
peptide: QHWQCVPRWMCDGF
notes: as for B1
B8: Phage-3192 (peptide, not shown: large carriers)
peptide: EVVMCRPLWMCSGF
notes: as for B1
B9: Phage-3193 (peptide, not shown: large carriers)
peptide: GEAVCIPRWMCDGF
notes: as for B1
B10: Phage-3194 (peptide, not shown: large carriers)
peptide: DMPLCIPAWMCAGF
modifications: cysteine pairing not given here; also: fused to phage pIII, junction sequence not given here
notes: as for B1
B11: Phage-3195 (peptide, not shown: large carriers)
peptide: HEHFCRPLWMCTGL
notes: as for B1
B12: Phage-3196 (peptide, not shown: large carriers)
peptide: VEVRCVPAWMCTGF
notes: as for B1
B13: Phage-3197 (peptide, not shown: large carriers)
peptide: LSPMCVPQWMCSGF
notes: as for B1
B14: Phage-3198 (peptide, not shown: large carriers)
peptide: FDRVCKPEWMCNGL
notes: as for B1
B15: Phage-3171 (peptide)
peptide: GEVFCIPAWMCAGF
modifications: cysteine pairing not given here; also: fused to phage pIII, fusion site not given here
B16: Phage-3199 (peptide)
peptide: VTVRCEPAWMCMGF
modifications: cysteine pairing not given here; also: fused to phage pIII, linker and order not given here
notes: Peptide-180 library clone, tested as clonal phage supernatant; not shown: pIII filament protein of the bacteriophage, to which the peptide is fused
B17: Phage-3200 (peptide)
peptide: VTPLCVPKWMCELF
modifications: cysteine pairing not given here; also: fused to phage pIII, linker and order not given here
notes: as for B16
B18: Phage-3201 (peptide)
peptide: VVPLCIPQWMCAVF
modifications: cysteine pairing not given here; also: fused to phage pIII, linker and order not given here
notes: as for B16
B19: Phage-3202 (peptide)
peptide: VVVSCIPTWMCVGF
modifications: cysteine pairing not given here; also: fused to phage pIII, linker and order not given here
notes: as for B16
B20: Phage-3203 (peptide)
peptide: VSVRCEPEWMCMGF
modifications: cysteine pairing not given here; also: fused to phage pIII, linker and order not given here
notes: as for B16
B21: Phage-3167 (peptide)
peptide: TYPKCIPPWMCTGF
modifications: cysteine pairing not given here; also: fused to phage pIII, fusion site not given here
B22: Phage-3168 (peptide)
peptide: ADWLCRPAWMCEGL
modifications: cysteine pairing not given here; also: fused to phage pIII, fusion site not given here
B23: Phage-3169 (peptide)
peptide: VEKLCKPEWMCMGF
modifications: cysteine pairing not given here; also: fused to phage pIII, fusion site not given here
B24: Phage-3170 (peptide)
peptide: EVKFCKPAWMCTGF
modifications: cysteine pairing not given here; also: fused to phage pIII, fusion site not given here

Molecular target: T1, PSMA Fab (006 PSMA Fab)
T1 construct: also called Anti-PSMA Fab; anti-PSMA Fab
Assay: clonal phage ELISA on captured PSMA Fab, wells pre-incubated with PSMA antigen as competitor
Description: (§1) Clonal phage were harvested as crude supernatants and screened via standard ELISAs. […] Prior to the addition of clonal phage. wells were incubated with blocking buffer and PSMA antigen or blocking buffer alone. Without washing or aspirating, clonal phage supernatants were then added to the wells and incubated for a short time. Wells were then washed followed by detection of bound phage using a horse radish conjugated anti-M13 antibody.

Binder | Phage binding ELISA signal, Anti-PSMA Fab in presence of PSMA antigen
B1 | 0.0806
B2 | 0.082
B3 | 0.137
B4 | 0.109
B5 | 0.096
B6 | 0.0654
B7 | 0.103
B8 | 0.0925
B9 | 0.0937
B10 | 0.0615
B11 | 0.0753
B12 | 0.0941
B13 | 0.119
B14 | 0.0655

Molecular target: T2, PSMA Fab (006 PSMA Fab)
T2 construct: also called Anti-PSMA Fab
Assay: phage binding ELISA; biotinylated PSMA Fab on neutravidin plate, clonal phage supernatant, anti-M13 HRP detection;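 further: wells were preincubated with blocking buffer either containing PSMA antigen or without it before crude phage supernatant was added, briefly incubated, then washed prior to detection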
Description: as §1

Binder | Phage binding ELISA signal, Anti-PSMA Fab
B15 | 2.02
ANLLCIPNWMCSGF [Phage-3172] | 2.02
MDRMCVPEWMCYVF [Phage-3173] | 2.02
VTAKCVPEWMCTGF [Phage-3174] | 2.02
YPSMCKPLWMCQGF [Phage-3175] | 2.02
VTRMCVPEWMCSGI [Phage-3176] | 2.02
YEPVCRPAWMCIGF [Phage-3177] | 2.02
YEQACQPPWMCLGF [Phage-3178] | 2.02
YMMICRPAWMCSGL [Phage-3179] | 2.01
HERECIPRWMCTGF [Phage-3180] | 2.01
GVSMCIPAWMCQGF [Phage-3181] | 2.01
IQILCTPTWMCVGF [Phage-3182] | 2.01
EGAICKPEWMCKGF [Phage-3183] | 2.01
MVRLCEPEWMCTGF [Phage-3184] | 2.01

Molecular target: T1, PSMA Fab (006 PSMA Fab)
Assay: clonal phage ELISA on biotinylated PSMA Fab captured on neutravidin, anti-M13-HRP detection;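 further: crude clonal phage supernatants added to wells preincubated with PSMA antigen in blocking buffer or with blocking buffer alone, brief binding period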
Description: as §1

Binder | Phage binding ELISA signal, Anti-PSMA Fab
B1 | 2.01
B2 | 2
B3 | 2
B4 | 2
B5 | 2
B6 | 2
B7 | 2
B8 | 2
B9 | 1.99
B10 | 1.99
B11 | 1.99
B12 | 1.99
B13 | 1.99
B14 | 1.99

Molecular target: T3, PSMA Fab
T3 construct: also called Anti-PSMA Fab; 006 PSMA Fab
Assay: phage binding ELISA; biotinylated PSMA Fab on neutravidin plate, wells pre-incubated with PSMA antigen as competitor, clonal phage supernatant, anti-M13 HRP detection
Description: as §1

Binder | Phage binding ELISA signal, Anti-PSMA Fab in presence of PSMA
B16 | 0.0999
B17 | 0.0878
B18 | 0.0757
B19 | 0.103
B20 | 0.0741

Molecular target: T4, PSMA Fab
T4 construct: also called Anti-PSMA Fab; 006 PSMA Fab
Assay: clonal phage ELISA on captured PSMA Fab pre-incubated with PSMA antigen as competitor;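 further: crude clonal phage supernatants added to wells without washing away the PSMA competitor, bound phage detected by HRP-conjugated anti-M13 antibody, reference wells received blocking buffer only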
Description: as §1

Binder | Phage binding ELISA signal, Anti-PSMA Fab in presence of PSMA
B21 | 0.115
B22 | 0.0589
B23 | 0.0909
B24 | 0.0863

Molecular target: T2, PSMA Fab (006 PSMA Fab)
Assay: phage binding ELISA; PSMA Fab wells pre-incubated with PSMA antigen as competitor, anti-M13 HRP detection
Description: as §1

Binder | Phage binding ELISA signal, Anti-PSMA Fab with PSMA antigen
B15 | 0.107
ANLLCIPNWMCSGF [Phage-3172] | 0.0969
MDRMCVPEWMCYVF [Phage-3173] | 0.0741
VTAKCVPEWMCTGF [Phage-3174] | 0.0968
YPSMCKPLWMCQGF [Phage-3175] | 0.111
VTRMCVPEWMCSGI [Phage-3176] | 0.0628
YEPVCRPAWMCIGF [Phage-3177] | 0.0622
YEQACQPPWMCLGF [Phage-3178] | 0.0671
YMMICRPAWMCSGL [Phage-3179] | 0.116
HERECIPRWMCTGF [Phage-3180] | 0.065
GVSMCIPAWMCQGF [Phage-3181] | 0.0737
IQILCTPTWMCVGF [Phage-3182] | 0.0781
EGAICKPEWMCKGF [Phage-3183] | 0.0737
MVRLCEPEWMCTGF [Phage-3184] | 0.116

Molecular target: T4, PSMA Fab
Assay: clonal phage ELISA on biotinylated PSMA Fab captured on neutravidin, anti-M13 HRP detection;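 further: crude clonal phage supernatants added to wells pretreated with PSMA antigen in blocking buffer or with blocking buffer only, then briefly incubated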
Description: as §1

Binder | Phage binding ELISA signal, Anti-PSMA Fab
B21 | 2.03
B22 | 2.02
B23 | 2.02
B24 | 2.02

Molecular target: T3, PSMA Fab
Assay: phage binding ELISA; biotinylated PSMA Fab on neutravidin plate, clonal phage supernatant, anti-M13 HRP detection; blocking buffer alone;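 on Phage binding ELISA signal, Anti-PSMA Fab: wells were preincubated with blocking buffer either containing PSMA antigen or without it before crude phage supernatant was added, briefly incubated, then washed prior to detection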
Description: as §1

Binder | Phage binding ELISA signal, Anti-PSMA Fab
B16 | 1.98
B17 | 1.98
B18 | 1.98
B19 | 1.98
B20 | 1.98
